From paper PMC6916386

B1: Single stranded nucleic acid binding protein (Sbp1), wild type, galactose-inducible with ZZ (protein A) tag, from wild-type yeast R153 [modified: arginine-methylated in yeast … (parent)
chain 1: MSAEIEEATNAVNNLSINDSEQQPRAPTHKTVIDPEDTIFIGNVAHECTEDDLKQLFVEEFGDEVSVEIPIKEHTDGHIPASKHALVKFPTKIDFDNIKENYDTKVVKDREIHIKRARTPGQMQRGGFRGRGGFRGRGGFRGGFRGGYRGGFRGRGNFRGRGGARGGFNGQKREKIPLDQMERSKDTLYINNVPFKATKEEVAEFFGTDADSISLPMRKMRDQHTGRIFTSDSANRGMAFVTFSGENVDIEAKAEEFKGKVFGDRELTVDVAVIRPENDEEEIEQETGSEEKQE
chain 2: MTDETAHPTQSASKQESAALKQTGDDQQESQQQRGYTNYNNGSNYTQKKPYNSNRPHQQRGGKFGPNRYNNRGNYNGGGSFRGGHMGANSSNVPWTGYYNNYPVYYQPQQMAAAGSAPANPIPVEEKSPVPTKIEITTKSGEHLDLKEQHKAKLQSQERSTVSPQPESKLKETSDSTSTSTPTPTPSTNDSKASSEENISEAEKTRRNFIEQVKLRKAALEKKRKEQLEGSSGNNNIPMKTTPENVEEKGSDKPEVTEKTKPAEEKSAEPEVKQETPAEEGEQGEKGQIKEESTPKVLTFAERLKLKKQQKEREEKTEGKENKEVPVQEETKSAIESAPVPPSEQVKEETEVAETEQSNIDESATTPAIPTKSDEAEAEVEAEAGDAGTKIGLEAEIETTTDETDDGTNTVSHILNVLKDATPIEDVFSFNYPEGIEGPDIKYKKEHVKYTYGPTFLLQFKDKLNVKADAEWVQSTASKIVIPPGMGRGNRSRDSGRFGNNSSRGHDFRNTSVRNMDDRANSRTSSKRRSKRMNDDRRSNRSYTSRRDRERGSYRNEEKREDDKPKEEVAPLVPSANRWVPKFKSKKTEKKLAPDGKTELLDKDEVERKMKSLLNKLTLEMFDAISSEILAIANISVWETNGETLKAVIEQIFLKACDEPHWSSMYAQLCGKVVKELNPDITDETNEGKTGPKLVLHYLVARCHAEFDKGWTDKLPTNEDGTPLEPEMMSEEYYAAASAKRRGLGLVRFIGFLYRLNLLTGKMMFECFRRLMKDLTDSPSEETLESVVELLNTVGEQFETDSFRTGQATLEGSQLLDSLFGILDNIIQTAKISSRIKFKLIDIKELRHDKNWNSDKKDNGPKTIQQIHEEEERQRQLKNNSRSNSRRTNNSSNRHSFRRDAPPASKDSFITTRTYSQRNSQRAPPPKEEPAAPTSTATNMFSALMGESDDEE

Variants of: B1
Assay: glutathione pull-down, PAP blot band quantified
Details: with eukaryotic translation initiation factor 4G1 fused to GST (eIF4G1-GST) [yeast]; purified eIF4G1-GST incubated with yeast lysate; n = 3; parent: 100; read off a plot

percent of parent [% binding] | Variant
25 | chain 1 MSAEIEEATNAVNNLSINDSEQQPRAPTHKTVIDPEDTIFIGNVAHECTEDDLKQLFVEEFGDEVSVEIPIKEHTDGHIPASKHALVKFPTKIDFDNIKENYDTKVVKDREIHIKRARTPGQMQAGGFAGAGGFAGAGGFAGGFAGGYAGGFAGAGNFAGAGGAAGGFNGQKREKIPLDQMERSKDTLYINNVPFKATKEEVAEFFGTDADSISLPMRKMRDQHTGRIFTSDSANRGMAFVTFSGENVDIEAKAEEFKGKVFGDRELTVDVAVIRPENDEEEIEQETGSEEKQE [chain 1 R125A R129A R131A R135A R137A R141A R145A R149A R153A R155A R159A R161A R165A]
